Measurements reported in article PMC4380140 (Journal of biomolecular screening, 2012).

B1: ectodomain ephrinB1 (ed-ephrinB1), amino acids 26-236 of mouse ephrinB1 extracellular domain (domain or fragment, UniProt P52795 26-236, looked up)
chain: TPLAKNLEPVSWSSLNPKFLSGKGLVIYPKIGDKLDIICPRAEAGRPYEYYKLYLVRPEQAAACSTVLDPNVLVTCNKPHQEIRFTIKFQEFSPNYMGLEFKKYHDYYITSTSNGSLEGLENREGGVCRTRTMKIVMKVGQDPNAVTPEQLTTSRPSKESDNTVKTATQAPGRGSQGDSDGKHETVNQEEKSGPGAGGGGSGDSDSFFNSK
B2: ectodomain ephrinB3 (ed-ephrinB3), amino acids 28-227 of mouse ephrinB3 extracellular domain (domain or fragment, UniProt O35393 28-227, looked up)
chain: LSLEPVYWNSANKRFQAEGGYVLYPQIGDRLDLLCPRARPPGPHSSPSYEFYKLYLVEGAQGRRCEAPPAPNLLLTCDRPDLDLRFTIKFQEYSPNLWGHEFRSHHDYYIIATSDGTREGLESLQGGVCLTRGMKVLLRVGQSPRGGAVPRKPVSEMPMERDRGAAHSAEPGRDTIPGDPSSNATSRGAEGPLPPPSMPA

How the values were obtained:
[1] = biological target: the molecule itself; assay: SEC
[2] = biological target: the molecule itself; assay: dynamic light scattering

| Protein | binding result [1] | stoichiometry N [2] [monomers per particle] |
| --- | --- | --- |
| B1 | binds | – |
| B2 | – | 104 |
